Laboratory results as given in patent US20230374114A1 (published 2023).
Where a chain is given by its changes, count along the chain named.

B1: Ab 26 scFv-Fc (scFv, V domains shown)
VH: QVQLVQSGGGLVQPGRSLRLSCAASGFTFDDYAMHWVRQVPGKGLEWVSGIDWNSGVIGYADSVKGRFTISRDNAKNSLYLQMNSLRAEDTALYYCAKDAYSYGFLGAFDIWGQGTMVTVSS
VL: LPVLTQPPSVSVAPGQTASITCGGDNIRTKGVHWYQQKPGQAPLLVIYYASDRPSGIPERFSGSSSGNTATLTISRVEAGDEADYYCQVWDSSSDLVVFGGGTTLTVL
B2: Ab 14 scFv-Fc (scFv, V domains shown)
VH: QVQLQQSGPGLVKPSQTLSLTCAISGDSVSSNSAAWNWIRQSPARGLEWLGRTYYRSRWYNDYAISMKSRITINPDTSKNQFSLQLESVTPEDTAVYYCAREIRGFDYWGQGTLVTVSS
VL: QSVLTQPPSASGSPGQSVTISCTGTSSDVGAYNFVSWYQHHPGKAPKLIIYDFNKRPSGVPDRFSGSKSGNTASLTVSGLQADDEADYYCSSYAGSNNFDVVFGGGTKLTVL
B3: Ab 15 scFv-Fc (scFv, V domains shown)
VH: QVQLVQSGGGLVKPGRSLRLSCTASGFTFGDYAMSWFRQAPGKGLEWVGFIRSKAYGGTTGYAASVKGRFTISRDDSKSIAYLQMNSLKTEDTAVYYCTTADDDMDVWGKGTTVTVSS
VL: NFMLTQPHSVSESPGKTVTISCTRSSGTIASNYVQWYQQRPGSAPTTVIYEDNQRPSGVPDRFSGSIDRSSNSASLTISGLTPDDEADYYCQSYDTSNHYVFGTGTKVTVL
B4: Ab 19 scFv-Fc (scFv, V domains shown)
VH: EVQLVESGAEVKKPGESLKISCKGSGYSFTSYWIGWVRQMPGKGLEWMGIIYPGDSDTRYSPSFQGQVTISADKSISTAYLQWSSLKASDTAMYYCARRGDLDAFDIWGQGTMVTVSS
VL: QPGLTQPPAASGTPGQRVTVSCSGASANIGSNAVSWFKQFPETAPRLLISGNTHRPSGVPDRVSGSKSGTSASLTISGLQSDDEADYYCAAWDDSLNGYVFGSGTKVTVL
B5: Ab_13 (scFv, V domains shown)
VH: QVTLKESGPKLVKPTQTLTLTCTFSGFSLSTSGVGVGWIRQPPGKALEWLALIYWDDDKRYSPSLKSRLTIAKDTSKYQVVLTMTNMDPVDTATYYCARISGSGYFYPFDIWGQGTMVTVSA
VL: B3 VL with T28S, R69S, T82K, P83T, D84E, T96S, H99L, Y100W, T104G, V108L
B6: Ab_16 (scFv, V domains shown)
VH: QVQLVQSGGGVVQPGRSLRLSCAASGFTFSNYGMHWVRQAPGKGLEWVALIWERGSKKDYADSVKGRFTVSRDNSKNTLYLQMNSLRPEDTAVYFCAREGISMTGAEYFQHWGQGTLVTVSS
VL: QSVLTQPPSVSGSPGQRVTMSCTGSSSNIGAGYDVHWYQQVPGAAPRLLIYGTNNRPSGVPDRFSGSKSGTSASLTITGLQAEDEADYYCQSYDNSLTDPYVFGTGTKVTVL
B7: Ab 25 scFv-Fc (scFv, V domains shown)
VH: QVQLVQSGGGLVQPGGSLRLSCAASGFTFSSYWMSWVRQAPGKGLEWVANIKQDGSEKYYVDSVKGRFTISRDNAKNSLYLQMNSLRAEDTAVYYCARGFYYYGAFDIWGQGTTVTVSS
VL: NFMLTQPHSVSESPGKTVTISCTGSSGSIASNYVQWYQQRPGSAPTTVIYEDNQRPSGVPDRFSGSIGSSSNSASLTISGLKTEDEADYYCQSYDSSNHWVFGGGTKLTVL
B8: Ab 20 (scFv, V domains shown)
VH: QVQLVQSGGGSVKPGGSLRLSCAASGYRLSDYYMHWVRQAPGKGLEWVANIKQDGSEKYYVDSVKGRFTISRDNAKNSLYLQMNSLRAEDTAVYYCARVRGWSRGYFDYWGQGTLVTVSS
VL: B7 VL with G68D, T77L
B9: Ab_18 (scFv, V domains shown)
VH: EVQLVQSGGGVVQPGRSLRVSCAASGFSFSRYGMHWVRQAPGKGLEWVAFIRHDGSKKYYADSVEGRFTISRDNSRNTVSLEMNSLRGEDTAVYYCAKDGRLEAALDDWGQGTLVTVSS
VL: NFMLTQPHSMSGSAGKTVTVSCIRSSGSIANNFVQWYQQRPGSAPTTVIYEDNQRPSGVPDRFSGSIDSSSNSASLTISGLKTEDEADYYCQSYDSSNLVFGGGTRLTVL
B10: Ab 21 (scFv, V domains shown)
VH: QVQLVQSGGGLVQPGGSLRLSCATSGFTFDDYAMHWVRQAPGKGLEWVSGISWNSGSIGYVDSVKGRFTISRDNRNNKVYLQMNNLRAEDTAVYYCARDWWGSIDHWGLGTLVTVSS
VL: QSALTQPRSVSGSPGQSVTISCTGTSSDVGGYDYVSWYQQHPGKAPKLIIYDVSKRPSGVPDRFSGSKSGNTASLTVSGLQAEDEADYYCSSYTSSSPVVFGGGTKLTVL
B11: Ab 27 scFv-Fc (scFv, V domains shown)
VH: QVQLVQSGTEVKKPGASVKVSCKASGYSFTGSHLHWVRQAPGQGLEWMGWINPDSGVINYAQKFQGRVTLTRDTSISTAYMELSGLRSDDTAVYYCARDKAIGYVWALDYWGQGTLVTVSS
VL: QSALTQPPSVSGSPGQSVTISCTGTSSDVGTYNRVSWYQQPPGKAPKLMIYEVSNRPSGVSNRFSGSKSGNTASLTISGLQAEDEADYYCSSYTRTFTYVFGTGTKVTVL
B12: S1-R3-T1-C4 (Ab_8) (scFv, V domains shown)
VH: QVQLVQSGAEVKKPGSSVKVSCKASGGTFSSYAISWLRQAPGQGLEWMGWINPNSGGTNYAQKFQGRVTMTRDTSISTAYMELSRLRSDDTAVYYCARGSGGYYLGWGQGTLVTVSS
VL: QPGLTQPPSVSKGLRQTATLTCTGNSNNVGNQGAAWLQQHQGHPPKLLSYMNNNRPPGISERFSASRSGNTASLTITGLQPEDEADYYCSAWDSSLSRWVFGGGTKLSVL
B13: S1-RBD-R3-E1-E8 Ab (Ab 37) (scFv, V domains shown)
VH: QVQLVQSGAEVKKPGASVKVSCKASGYTFTSYGISWVRQAPGQGLEWMGWISTYNGNTNYAQKLQGRVTMTTDTSTSTAYMEVRSLRSDDTAVYYCARDVFGHFDYWGQGTLVTVSS
VL: NFMLTQPHSVSESPGKTVLISCTRSSGNIATNYVQWYQQRPGSAPTTVIYEDNQRPSGVPDRFSGSIDSSSNSASLTISGLKTEDEADYYCKSYDDGNHVFGGGTKLTVL
B14: S1-RBD-R3-T1-D7 Ab (Ab_34) (scFv, V domains shown)
VH: QVQLVQSGVEVKKPGESLKISCKGSGYSFTSYWIGWVRQMPGKGLEWMGIIYPGDSDTRYSPSFQGQVTISADKSISTAYLQWSSLKASDTAMYYCARTTYSYGSFDYWGQGTLVTVSS
VL: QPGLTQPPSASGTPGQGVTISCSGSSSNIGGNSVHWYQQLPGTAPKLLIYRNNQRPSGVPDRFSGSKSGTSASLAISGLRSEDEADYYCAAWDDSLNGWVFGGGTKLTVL
B15: RBD-R3-T1-H3 (Ab_2) (scFv, V domains shown)
VH: EVQLVQSGAEVKKPGSSVKVSCKTSGYTFTTSGISWVRQAPGQGLEWMGWISAYNGNTNYAQKLQGRVTMTTDTSTSTAYMELRSLRSDDTAVYYCARDFHLYYGMDVWGKGTLVTVSS
VL: QSALTQPPSASGSPGQSVTISCTGTSSDVGAYNYVSWYQQHPGKAPKLLIYDVTKRPPGVPDRFSGSKSGNTASLTVSGLQAEDEADYYCAVWDDGLNGRVVFGGGTKLTVL
B16: S1-RBD-R3-T1-B12 Ab (Ab_31) (scFv, V domains shown)
VH: QVQLVQSGAEVKKPGSSVKVSCKASGGTFSSYTISWVRQAPGQGLEWMGGIIPILGTPNYAQKFQDRVAITADKSTSTAYMELSSLRSEDTAVYYCAVGSGWYSGFDYWGQGTLVTVSS
VL: B7 VL with N53S, G68D, Y94F, D95H, S96N, H99P, W100V, V101I
B17: RBD-R3-E1-F5 Ab (Ab_36) (scFv, V domains shown)
VH: QVQLQQSGPGLVKPSQTLSLTCAIFGDSVTSNSAAWNWIRQSPSRGLEWLGRTYYSSKWYNDYAVSVKSRVTINADTSKNQLSLQLNSVTPEDTAVYYCARGWLRLSFDPWGQGTLVTVSS
VL: NFMLTQPHSVSESPGKTVTISCTGSSGSIASNYVQWLQQRLGSAPTTVIYEDNQRPSGVPDRFSGSIDSSSNSASLTISGLKTEDEADYYCQSYDPNNHGVVFGGGTKLTVL
B18: Ab 30 scFv-Fc (RBD-R3-E1-A5) (scFv, V domains shown)
VH: QVQLVQSGGGVVQPGKSLRLSCTASGFTFSDFPIHWVRQAPGKGLEWVGVISYDGNIKYYGDSVKGRFTISRDNAKNSLYLQMNSLRVEDTAVYYCARGGSSFDIWGQGTTVTVSS
VL: SYELTQPPSVSEAPRQRVTISCSGSTSNIGNNAVSWYQHLPGKAPKLLIYYNERLPSGVSDRFSGSKSGTSASLAISGLRSEDEADYYCAAWDDSLSGHVVFGGGTKLTVL
B19: S1-RBD-R3-T1-C7 Ab (Ab 29) (scFv, V domains shown)
VH: QVQLQQSGPGLVKPSQTLSLTCAISGDSVSSYSDAWNWIRQSPSRGLEWLGRTYYRSKWYNDYAVSVKSRITINPDTSKNQFSLQLSSVTPEDTAVYYCAREIVATTPFRNYYYGMDVWGQGTTVTVSS
VL: NFMLTQPHSVSESPGNTVTISCTRTSGSIASNYVQWYQQRPGSSPTTVIFQDKLRPSGVPDRFSGSIDSSSNSASLTISGLKTEDEADYYCQSYDSSSLWVFGGGTKLTVL
B20: Ab 38 (scFv, V domains shown)
VH: QVTLKESGPTLVKPTQTLTLTCTFSGFSLTTSGVSVGWIRQPPGKALEWLALIHWDDDKRYSPSLRSRLTITRDTSKNQVVLTVTDMDPADTGTYYCASFIMTVYAEYFEDWGQGTLVTVSS
VL: EIVLTQSPATLSVSPGERATLSCRASQSVSSNLAWYQQKPGQAPRLLMYDVSTRATGIPARFSGSGSGTEFSLTISSLQSEDFAVYYCQQRGAWPLTFGGGTKVEIK
B21: RBD-R3-E1-B3 Ab (Ab_32) (scFv, V domains shown)
VH: QVQLVQSGAEVKKPGESLKISCKGSGYSFTSYWIGWVRQMPGKGLEWMGIIYPGDSDTRYSPSFQGQVTISADKSISTAYLQWSSLKASDTAMYYCARGWQWHDYWGQGTLVTVSS
VL: QTVVTQEPAVSVALGQTVRITCQGDSLRSYYASWYQQKPGQAPVLVVYDKDKRPSGIPDRFSGSTSGNTASLTITGAQAEDEADYYCNSRDRSDNHVVFGGGTKLTVL

target: T1, Biotinylated SARS-CoV-2 S1 protein (ACRO, S1N-C82E8) (UniProt P0DTC2 16-685); assay: BLI

Question: With B1 as the binder, how does the Kd read?
Answer: Its Kd is 0.0875 nM.

Question: Which Kd does the source give for B2 here?
Answer: The Kd was 0.594 nM.

Question: B3 was tested. Which Kd did it give?
Answer: Its Kd is 0.033 nM.

Question: With B4 as the binder, how does the Kd read?
Answer: Its Kd is 0.13 nM.

Question: How did the Kd turn out when B5 was run?
Answer: The Kd was 1.14 nM.

Question: How did the Kd turn out when B6 was run?
Answer: Its Kd is 2.18 nM.

Question: Which Kd does the source give for B7 here?
Answer: Its Kd is 10.1 nM.

Question: For B8, which Kd is on record?
Answer: Its Kd is 5.01 nM.

Question: For B9, which Kd is on record?
Answer: The Kd was 0.121 nM.

Question: With B10 as the binder, how does the Kd read?
Answer: Its Kd is 1.28 nM.

Question: Which Kd does the source give for B11 here?
Answer: Its Kd is less than 0.001 nM.

target: T1, Biotinylated SARS-CoV-2 S1 protein …; assay: BLI; remark: another data set of the same source

Question: How did the Kd turn out when B12 was run?
Answer: The Kd was 325 nM.

Question: B1 was tested. Which Kd did it give?
Answer: Its Kd is 0.0875 nM.

Question: With B2 as the binder, how does the Kd read?
Answer: The Kd was 0.594 nM.

Question: How did the Kd turn out when B13 was run?
Answer: Its Kd is 0.907 nM.

Question: B14 was tested. Which Kd did it give?
Answer: Its Kd is 0.184 nM.

Question: Which Kd does the source give for B3 here?
Answer: Its Kd is 0.033 nM.

Question: For B4, which Kd is on record?
Answer: Its Kd is 0.13 nM.

Question: With B5 as the binder, how does the Kd read?
Answer: Its Kd is 1.14 nM.

Question: B6 was tested. Which Kd did it give?
Answer: Its Kd is 2.18 nM.

Question: Which Kd does the source give for B7 here?
Answer: Its Kd is 10.1 nM.

Question: With B15 as the binder, how does the Kd read?
Answer: Its Kd is less than 0.001 nM.

Question: Which Kd does the source give for B8 here?
Answer: The Kd was 5.01 nM.

Question: B16 was tested. Which Kd did it give?
Answer: Its Kd is 2040 nM.

Question: B9 was tested. Which Kd did it give?
Answer: Its Kd is 0.121 nM.

Question: Which Kd does the source give for B10 here?
Answer: Its Kd is 1.28 nM.

Question: With B17 as the binder, how does the Kd read?
Answer: The Kd was 0.0306 nM.

Question: Which Kd does the source give for B18 here?
Answer: The Kd was 0.314 nM.

Question: Which Kd does the source give for B11 here?
Answer: The Kd was less than 0.001 nM.

Question: How did the Kd turn out when B19 was run?
Answer: The Kd was less than 0.001 nM.

Question: With B20 as the binder, how does the Kd read?
Answer: Its Kd is 0.22 nM.

Question: With B21 as the binder, how does the Kd read?
Answer: The Kd was 0.168 nM.
